Reference: patent publication US20190000969A1 (AbbVie / Abbott, published 2019)

T1: human UPK1B (hUPK1B) protein, full length, on the cell surface (human, UniProt O75841 1-260)
T1 sequence: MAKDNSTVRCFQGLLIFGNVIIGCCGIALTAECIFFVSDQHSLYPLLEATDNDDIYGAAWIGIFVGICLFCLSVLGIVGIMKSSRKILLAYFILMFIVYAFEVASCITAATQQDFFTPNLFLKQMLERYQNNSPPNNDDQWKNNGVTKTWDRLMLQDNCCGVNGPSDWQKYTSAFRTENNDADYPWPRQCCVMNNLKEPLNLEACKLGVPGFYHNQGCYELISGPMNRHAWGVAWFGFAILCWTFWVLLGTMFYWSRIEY

T2: hUPK1B(108-229)-Fc, second extracellular domain of human UPK1B fused to human IgG2 Fc (human, UniProt O75841 108-229)
T2 construct: Expressed behind an IgK signal peptide, which is not part of the secreted protein; also called hUPK1B-Fc; Fc-fusion human UPK1B protein; not shown: human IgG2 Fc protein
T2 sequence: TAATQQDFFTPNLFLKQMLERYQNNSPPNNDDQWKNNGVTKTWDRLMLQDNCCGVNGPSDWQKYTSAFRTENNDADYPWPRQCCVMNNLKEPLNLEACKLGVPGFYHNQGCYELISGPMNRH


The binders below were run against T1, human UPK1B (hUPK1B) protein, full … (assay: cell-based or functional assay).

Binder | IVK, HxUPK1B, 250pM, fz, % live [% live]
SC115.13 (antibody, IgG1, V domains shown) VH: QILLVQSGPELKKPGETVKISCKASGYTFTNYGMNWVKQAPGKGLKWMGWINTKTGVPTYPDDFKGRFAFSLETSASTAYLQISNLKDEDTATYFCTRGESFFSFAFWGQGTLVAVSA VL: not shown | 99.4
SC115.52 (antibody, IgG1, V domains shown) VH: QILLVQSGPELKKPGETVKISCKASGYTFTNLGMNWVKQAPGKGLKWMGWINTYTGDPTYVDDFKGRFAFSLETSASTAYLQISNLKNEDTATYFCTRGEKFYSFAYWGQGTLVTVSA VL: not shown | 103
SC115.18 (antibody, V domains shown) VH: QVQLQQPGAELVRPGSSVKLSCKASGYTFTSYWMHWVKQRPMQGLEWIGNIDPSDSEIYYNQKFKDKATLTVDKSSGTAYMQLSSLTSEDSAVYYCARRSGSRDYYGMDDWGQGTSVTVSS VL: DIVMTQSPSSLTVTAGEKVTMRCKSSQSLLNSGNQKNYLTWYQQKPGQPPKLLISWASTRDSGVPDRFTGSGSRTDFILTISSVQAEDLAVYYCQNDYSYPLTFGAGTKLELK | 22.9
SC115.7 (antibody, V domains shown) VH: EVQLQQSGAELVRPGASVKLSCTASGFNIKDSFIHWVKKRPEEGLEWIGWIDPEDGETKYAPKFQDKATITADTSSNTAYLQLSSLTSEDTAIYYCARRERFYGIYYALDYWGQGTSVTVSS VL: DIVMTQSPSSLTVTAGEKVTMSCKSSQSLLNSGNQKNYLTWYQQKLGQPPKLLIYWASTRESGVPDRFTGSGSGTDFTLTISSVQAEDLAVYYCQNDYSNPFTFGSGTKLEIK | 48.7
SC115.9 (antibody, IgG2a, V domains shown) VH: QVQLQQPGAELVKPGASVKMSCKASGYTFTSNWMHWVKQRPGQGLEWIGVIDPSDTYISYNQKFKGKATLTVDTSSSTAYMQLSSLTSEDSAVYYCTRRDSGWYFDVWGAGTTVTVSS VL: DIVMTQSPSSLTVTAGEKVTMSCKSSQSLLNSGNQKNYLTWYQQKPGQPPKLLIYWASTRESGVPDRFTGSGSGTDFTLTISSVQAEDLAVYYCQNDYSYPLTFGAGTKLELK | 17.6
SC115.65 (antibody, IgG2a, V domains shown) VH: EVQLQQSGPELVKPGASVKISCKASGYSFTGYFMNWVMQSHGKSLEWIGRINPYNGDTFYNQKFKGKATLTVDKSSNTAHMELRSLASEDSGVYYCAGHNNYGVSWGQGTTLTVSS VL: DVLMTQTPLSLPVSLGDQASISCRSSQIIVHSNGNTYLEWYLQKPGQSPKLLIYKVSNRFSGVPDRFSGSGSGTDFTLKISRVEAEDLGVYYCFQGSHLPYTFGGGTKLEIK | 98.3
SC115.19 (antibody, IgG2a, V domains shown) VH: QITLKESGPGILQPSQTLSLTCSFSGFSLSTSGMGVGWIRQPSGKGLEWLANIWWNDDQYYNPPLKSRLTVSKDTSKTQVFLKIAHVDTADTATYYCARIYSGNYGAMDYWGQGTSVTVSS VL: DIVMTQAAFSNPVTLGTSASISCRSSKSLLHSNGITYLYWYLQKPGQSPQLLIYQMSSLASGVPDRFSSSGSGTDFTLRISRVEAEDVGVYYCAQSLELPYTFGGGTKLEIK | 20.4
SC115.48 (antibody, V domains shown) VH: EVQLVETGGGLVQPKGSLKLSCAASGLSFNTYAMNWVRQAPGKGLEWVARIRSKSNNYATYYADSVKDRFTISRDDSQSMLYLQMNNLKTEDTAMYYCVTSLFDYWGQGTTLTVSS VL: QLVVTQSSSASFSLGASAKLTCTLSSQHSTYTIEWYQQQPLKPPKYVMELKKDGSHSTGDGIPDRFSGSSSGADRYLSISNMQPEDEAIYICGVGEAIKEQFVYVFGGGTKVTVL | 22.2

Next, values leading:

IVK, HxUPK1B, 250pM, fz, % live [% live] | Binder
23.1 | SC115.1 (antibody, IgG1, V domains shown) VH: QVLLQQSGPQLVRPGASVKISCKASGYSFTSYWIHWVKQRPGQGLEWIGMIDPSDSETSFNQKFKDKATLTVDKSSSTAYMQLSSPTSEDSAVYYCARSYYASRFDYWGQGATLTVSS VL: DIVMTQSPSSLAMSVGQKVTMNCKSSQSLLNSNNQKNYLAWYQQKPGQSPKLLVYFASTRESGVPDRFIGSGSGTDFTLTITSVQAEDLADYFCLQHYGTPLTFGAGTKLELK
100 | SC115.51 (antibody, V domains shown) VH: QVQLKQSGPGLVQPSQSLSITCTVSGFSLTNYGIHWVRQSPGKGLEWLGVIWRGGSTDYNAGFMSRLTITKDNSKSQVFFKMNSLQGDDTAIYYCAKNTGRGALDYWGQGTTLTVSS VL: DIVMTQSPSSLAVTAGEKVTMRCKSSQSLLWSVNQNNYLSWYQQKQGQPPKLLISGASIRESWVPDRFTGSGSGTDFTLTISNVHAEDLAVYYCQHNHGSFLPYTFGGGTKLEIK
89 | SC115.4 (antibody, IgG2a, V domains shown) VH: DVKLVESGGGLVKLGGSLKLSCAASGFTFSSYPMSWVRQTPEMRLEWVATISSGGGITYYPDSVKGRFTISRDNAKNTLSLQMNSLRSEDTAMYYCSRLYYSDYEGYMDYWGQGTSVTVSS VL: DIVLTQSPASLAVSLGQRATISCRASKSVSTSGYSYMHWYQQKPGQPPKLLIYLASNLESGVPARFSGSGSGTDFTLNIHPVEEEDASTYYCQHSRELPLTFGAGTKLELK

Target: T1, human UPK1B (hUPK1B) protein, full …
Assay: cell-based or functional assay
Remark: another data set of the same source

Binder | IVK, HxUPK1B, 250pM, fz, % live [cont.] [% live]
SC115.46 (antibody, V domains shown) VH: QVQLQQSGPQLVRPGASVKISCKASGYSFTTSWMHWMKQRPGQGLEWIGMIDPSDSETGLNQIFRDKATLTVDKYSSTAYMQLSSPTSEDSAVYYCARRGRFSYDYGGFAYWGQGTLVTVSA VL: DIVMTQSPSSLTVTAGEKVTMSCKSSQSLLNSGNQKNYLTWYQQKPGQTPKLLIYWASTRESGVPDRFTGSGSGTDFTLTISSVQAEDLAVYYCQNDYSNPFTFGGGTKLEIK | 19.3
SC115.90 (antibody, IgG2a, V domains shown) VH: DVKLVESGGGFVRLGGSLKLSCAASGFTFNNYAMSWVRQTPEKRLEWVAIISRGGTKNYYPDSVKGRFTISRDNAKNTLYLQMSSLRSEDTAMYYCARLYYDDYEGYMDYWGQGTSVTVSS VL: DIVLTQSPASLAVSLGQRATISCRASKSVSTSGYSYMHWYQQKPGQPPKLLIYLASNLESGVPARFSGSGSGTDFTLNIHPVEEEDAATYYCQHSRELPLTFGAGTRLELK | 104

Next, values leading:

IVK, HxUPK1B, 250pM, fz, % live [cont.] [% live] | Binder
17.2 | SC115.36 (antibody, IgG1, V domains shown) VH: EVQLQQSGTVVARPGASVKMSCKASGYSFTSYWMHWIKQRPGQGLDWIGSIYPGHSDATYNQRFKGKAKLTAVTSANTAYMELSSLTNEDSAVYYCSRSDGYYRGMAMDYWGQGTSVTVSS VL: DIVLTQSPASLAVSLGQRATISCRASESVDGYGNSFMHWYRQKPGQPPKLLIYRASNLESGIPARFSGSGSRTDFALTINPVEADDVATYYCQQSYGDPRTFGGGTNLEIK
105 | SC115.26 (antibody, V domains shown) VH: not shown VL: DIVMSQSPSSLAVSVGEKVTMSCKSSQSLLYSSNQKNFLAWYQQKPGQSPKLLIYWASTRESGVPDRFTGSGSGTDFTLTISSVKAEDLAIYYCQQYYYYPYTFGGGTKLEIK
28.2 | SC115.32 (antibody, IgG1, V domains shown) VH: QVQLQQPGAELVRPGSSVKLSCKASGYTFNSYWMHWVKQRPIKGLEWIGNIDPSDGETYYNQAFKDKATLTVDKSSSTAYMQLSRLTSEDSAVYYCARRGTAQATTWLGYWGQGTLVTVSA VL: DIVMTQSPSSLTVTAGEKVTMSCKSSQSLLNSGNQKNYLTWYQQKPGQPPKLLIYWASTRESGVPDRFTGSGSGTDFTLTISSVQAEDLAVYYCQNDYSYPFTFGSGTKLEIK
55.7 | SC115.94 (antibody, IgG2a, V domains shown) VH: QVQLQLSGAELVKPGASVKISCKASGYAFSSYWMNWVKQRPGKGLEWIGQIYPGDADTHYNGKFKGKATLTADKSSSTAYMQLSSLTSEDSAVYFCARLKLGRFDYWGQGTTLTVSS VL: QLVLTQSSSASFSLGASAKLTCTLSSQHSTYTIEWYQQQPLKPPKYVMELKKDGSHNTGDGIPDRFSGSSSGADRYLSISNIQPEDEAIYICGVGYTIKEQFVYVFGGGTKVTVL
25.6 | SC115.84 (antibody, IgG2b, V domains shown) VH: QVQLQQSGAELVKPGASVKISCETSGYTFSSYWMNWVKQRPGKGLEWIGQIDPGDGDTNYNGKFRGKATLTADKSSSTAYMQLNTLTSEDSAVYFCARSRQLRLDYWGQGTTLTVSS VL: QIVLTQSPAIMSASPGERVTMTCSASSSVSSFYLYWYQQKSGSSPKVWIYSTSNLASGVPTRFSGSGSGTSYSLTINSMEAEDAATYYCQQWSSNPLTFGAGTKLELK

These binders were tested against T2, hUPK1B(108-229)-Fc, second … (assay: SPR, Biacore T200; human UPK1B Fc-fusion captured on anti-human chip, papain-digested Fab as analyte, 1:1 Langmuir fit).
Protocol: The kinetic characteristics and affinities of the anti-UPK1B antibodies for human UPK1B protein was determined by surface plasmon resonance using a Biacore T200 (GE Healthcare). An anti-human antibody capture kit was used to immobilize anti-human antibodies on a CM5 biosensor chip. Then, in independent flow cells, CHO expressed Fc-fusion human UPK1B protein was immobilized. Prior to each anti-UPK1B antibody Fab fragment injection cycle, the human Fc-fusion protein was captured at a concentration of 1 μg/mL on the surface with a contact time of 12 seconds and a flow rate of 20 μL/min. […] The CM5 anti-human chip surface was regenerated with 1 min. contact time of 10 mM Glycine, pH 1.7 at 10 μL/min. following each cycle.
The data was processed by subtracting a control irrelevant human Fc-fusion protein surface response from the specific human UPK1B Fc-fusion protein surface response and data was truncated to the association and dissociation phase. The resulting response curves were used to evaluate the kinetic characteristics of the antibodies for experiments done on the Biacore T200. Association and dissociation data was fit with a 1:1 langmuir binding model using the Biacore T200 Evaluation Software (GE Healthcare).

Kd [nM] | Binder
6.4 | chimSC115.9 (Fab, V domains shown, also called Fab fragment (papain-digested) of chimeric SC115.9; parental chimeric antibody) VH: QVQLQQPGAELVKPGASVKMSCKASGYTFTSNWMHWVKQRPGQGLEWIGVIDPSDTYISYNQKFKGKATLTVDTSSSTAYMQLSSLTSEDSAVYYCTRRDSGWYFDVWGAGTTVTVSS VL: DIVMTQSPSSLTVTAGEKVTMSCKSSQSLLNSGNQKNYLTWYQQKPGQPPKLLIYWASTRESGVPDRFTGSGSGTDFTLTISSVQAEDLAVYYCQNDYSYPLTFGAGTKLELK
3.6 | chimSC115.18 (Fab, V domains shown, also called Fab fragment (papain-digested) of chimeric SC115.18; parental chimeric antibody) VH: QVQLQQPGAELVRPGSSVKLSCKASGYTFTSYWMHWVKQRPMQGLEWIGNIDPSDSEIYYNQKFKDKATLTVDKSSGTAYMQLSSLTSEDSAVYYCARRSGSRDYYGMDDWGQGTSVTVSS VL: DIVMTQSPSSLTVTAGEKVTMRCKSSQSLLNSGNQKNYLTWYQQKPGQPPKLLISWASTRDSGVPDRFTGSGSRTDFILTISSVQAEDLAVYYCQNDYSYPLTFGAGTKLELK
